Experimental data from the DeepSol protein solubility set.

test: soluble on expression in E. coli; label from the status in PepcDB or PDB records

Sequence	soluble on expression in E. coli
MTTMNPFLVQSTLPYLAPHFDQIANHHYRPAFDEGMQQKRAEIAAIALNPQMPDFNNTILALEQSGELLTRVTSVFFAMTAAHTNDELQRLDEQFSAELAELANDIYLNGELFARVDAVWQRRESLGLDSESIRLVEVIHQRFVLAGAKLAQADKAKLKVLNTEAATLTSQFNQRLLAANKSGGLVVNDIAQLAGMSEQEIALAAEAAREKGLDNKWLIPLLNTTQQPALAEMRDRATREKLFIAGWTRAEKNDANDTRAIIQRLVEIRAQQATLLGFPHYAAWKIADQMAKTPEAALNFMREIVPAARQRASDELASIQAVIDKQQGGFSAQPWDWAFYAEQVRREKFDLDEAQLKPYFELNTVLNEGVFWTANQLFGIKFVERFDIPVYHPDVRVWEIFDHNGVGLALFYGDFFARDSKSGGAWMGNFVEQSTLNKTHPVIYNVCNYQKPAAGEPALLLWDDVITLFHEFGHTLHGLFARQRYATLSGTNTPRDFVEFPSQINEHWATHPQVFARYARHYQSGAAMPDELQQKMRNASLFNKGYEMSELLSAALLDMRWHCLEENEAMQDVDDFELRALVAENMDLPAIPPRYRSSYFAHIFGGGYAAGYYAYLWTQMLADDGYQWFVEQGGLTRENGLRFREAILSRGNSEDLERLYRQWRGKAPKIMPMLQHRGLNI	soluble
MGSDKIHHHHHHMKIGVIQASTRTDLNQLLFEAVKQAAGNQHEIVNFGVFPQETENYSYVEVAIMISLLIETGAIDFMVSGCSSGQGMMMACNSLPGLQAGFIQTPQDAFLFGRINNGNVASLSLGLNFGWAGELNLQYALNELFHGEFGIGYPPEVAERKREEAQLLLTLNDITKKSFLEIIDQLDKALLFKILKRKDLTAYLFDYGSNSLLLERLQFFRN	not soluble
MPTNCAAAGCATTYNKHINISFHRFPLDPKRRKEWVRLVRRKNFVPGKHTFLCSKHFEASCFDLTGQTRRLKMDAVPTIFDFCTHIKSMKLKSRNLLKKNNSCSPAGPSNLKSNISSQQVLLEHSYAFRNPMEAKKRIIKLEKEIASLRRKMKTCLQKERRATRRWIKATCLVKNLEANSVLPKGTSEHMLPTALSSLPLEDFKILEQDQQDKTLLSLNLKQTKSTFI	not soluble
PHFIVECSDNIREEADLPGLFAKVNPTLAATGIFPLAGIRSRVHWVDTWQMADGQHDYAFVHMTLKIGAGRSLESRQQAGEMLFELIKTHFAALMESRLLALSFEIEELHPTLNFKQNNVHALFK	soluble
MTLKELYAETRSHMQKSLEVLEHNLAGLRTGRANPALLLHLKVEYYGAHVPLNQIATVTAPDPRTLVVQSWDQNALKAIEKAIRDSDLGLNPSNKGDALYINIPPLTEERRKDLVRAVRQYAEEGRVAIRNIRREALDKLKKLAKELHLSEDETKRAEAEIQKITDEFIAKADQLAEKKEQEILG	soluble
FPSKARMFEGLIEFIEESLMSRINRIFDEEKDTLNRIRLVMQLLLAFAERNPGLTRILSGHALMFENERLRDRINQLFERIETSLRQILRERKLREGKSFPVDENILAAQLLGQVEGSLNRFVRSDFKYLPTANFDEYWALLSAQIK	not soluble
MGSDKIHHHHHHVDPVVLLTSVSALTQTQKPCRGRRNARDRIPTCSQETLEGKALALRVAVVGGGPAGSCAAETLVKAGIETYLIERKLDNAKPCGGAIPLCMVSEFDLPAEIIDRRVRNMKMISPSNREVNINLDNADEYIGMTRREVLDGFLRDRAAKLGTKLINGTLFRLELPKGDRDPYVLHYADHSNGSLEGIPSTLEVDVVIGADGANSRIAKAIDAGDYNYAIAFQERIRLPEDKMHYYENLAEMYVGGDVSPDFYAWVFPKYDHVAVGTGTMHVNQRLIKKLQAGIRARAANRLEGGKIIKVEAHPIPEHPRPRRVVGRAALVGDAAGYVTKSSGEGIYFAAKSGRMCAETIVETSNNGARIPTEADLKQYLRRWDKKYGTTYKVLDLLQTVFYRSDATREAFVEMCDDKDVQRLTFDSYLYKTVVPANPLVQLKITAKTLGSLLRGNALAPAEYKPIDAA	not soluble
MLTLSFATGTEPNKWFTRFEERTDHGGLRTLSDDDPLSLLVDATADLALVRLPDPRMDNDDTVHVVELYQESMGVALPKEHTLTLLDVVEPSDLDGEIINYITPPSLEVDVAAVRAQLQMVAANVGVVIAPRPLLKVLSGKLVEHREFSDPQRYGQARTRIALVWKKERDGEDIQDFVGIAKGRTVQSSRQSNAKKVSAREKTLAKQKRRKEAGKKPVRKGGRRKR	not soluble
